The supplement of paper PMC10567573

B1: DFFB (parent)
chain: KLNCDPSRIYKPQTRLKRKQPVRK

Variants of: B1
Experiment: protein stability index of a GFP-peptide fusion (GPS, HEK-293T) (PSI 1-6); higher = more stable
Details: c terminus: a fixed tail appended
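Also: lentivirally expressed fusions sorted by FACS into six bins by GFP to DsRed ratio, PSI derived from sequencing read proportions per bin multiplied by bin number.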

Protein stability index of substitutions, site by site:
D5: Q 3.32 | K 3.8 | M 2.71 | T 2.92 | P 3.25 | I 2.74 | W 2.71 | N 3.96 | Y 3.75 | R 3.34 | H 3.48 | V 2.98 | G 3.35 | L 3.06 | F 3.08 | S 3.35
P6: L 3.12 | A 3.45 | W 3.08 | M 3.16 | T 3.56 | D 4.05 | E 4.13 | C 3.22 | S 3.71 | Q 3.62 | N 3.79 | V 2.89 | H 3.39 | G 3.44 | Y 3.5 | K 4.03 | F 2.92 | R 3.7 | I 3.11
S7: Q 3.87 | L 3.73 | M 3.07 | G 3.5 | W 3.78 | H 3.21 | R 2.98 | A 3.28 | F 3.34 | K 3.21 | E 3.53 | Y 2.73 | I 3.41 | P 3.19 | T 3.46 | D 3.36 | V 3.21 | N 3.55 | C 3.52
I9: R 2.91 | T 3.31 | A 3.57 | S 2.51 | N 4.01 | Y 3.32 | D 4.04 | Q 3.9 | G 3.47 | F 3.83 | W 2.82 | M 3.3 | V 3.52 | E 3.93 | H 3.31 | L 3.81 | K 3.84 | C 4.01
R15: Y 2.17 | Q 2.67 | L 2.69 | D 3.09 | M 3.21 | K 3.24 | N 3.26 | W 3.02 | C 3.24 | H 3.59 | T 3.76 | S 3.96 | E 3.68 | F 3.25 | V 3.49 | A 2.82 | G 3.58 | P 3.6 | I 3.52
Q13: W 3.6 | K 4.12 | I 3.24 | G 3.56 | L 3.09 | D 3.83 | M 3.51 | C 3.56 | V 3.8 | T 3.66 | N 3 | A 4.01 | Y 3.46 | R 3.08 | P 3.76 | E 4.16 | H 4.35 | S 3.44
L16: C 2.95 | D 2.92 | R 3.48 | G 4.16 | M 3.23 | E 4.44 | I 3.67 | S 3.6 | T 4.05 | F 2.8 | N 3.85 | P 3.83 | W 3 | K 3.07 | Q 3.9 | H 3.9 | Y 3.77 | V 3.88 | A 3.34
K19: W 2.94 | G 2.63 | L 3.14 | F 1.86 | M 3.31 | R 3.9 | P 3.25 | Y 2.89 | T 3.52 | N 3.54 | E 2.93 | D 3.53 | I 3.18 | V 2.96 | A 3.66 | C 2.69 | H 3.49 | S 2.78 | Q 3.34
K17: L 2.14 | R 3.18 | Q 2.9 | C 3.38 | F 3.45 | H 2.55 | P 3 | A 2.98 | M 3.45 | I 3.21 | Y 3.68 | N 3.21 | G 4.14 | S 3.35 | W 3.19 | D 2.17 | V 3.25 | T 3.14 | E 3.42
Q20: K 3.7 | W 3.24 | C 3.6 | I 3.69 | A 3.38 | S 2.75 | M 4.04 | T 4.39 | G 4.19 | N 3.66 | Y 2.91 | D 3.35 | P 2.98 | R 3.59 | E 3.04 | V 3.54 | H 3.12 | F 3.15
Y10: E 3.56 | V 2.94 | G 2.28 | C 3.62 | N 3.57 | Q 2.75 | W 3.47 | A 2.92 | K 3.21 | L 3.84 | S 4.16 | T 3.35 | P 3.72 | H 3.86 | R 3.56 | I 3.6 | M 3.38 | D 3.55 | F 2.58
K11: T 3.2 | F 3.09 | V 3.95 | E 4.3 | R 3.53 | S 2.89 | D 3.21 | I 3.16 | C 3.9 | L 2.99 | P 3.15 | Y 3.94 | M 3.02 | W 3.3 | A 4.01 | Q 2.07 | H 2.94 | N 2.98 | G 3.17
P12: F 3.38 | W 3.21 | S 3.89 | L 2.86 | K 3.46 | I 2.85 | N 4.49 | Q 2.24 | D 3.09 | H 3.13 | R 3.33 | T 3.69 | E 4.24 | M 3.31 | A 3.47 | C 3.21 | Y 2.79 | G 3.3
V22: G 4.39 | K 3.14 | L 3.62 | T 3.64 | M 3.42 | F 3.48 | D 3.67 | P 3.87 | I 3.78 | S 4.09 | Q 3.39 | W 3.26 | N 3.62 | Y 2.22 | A 3.77 | E 3.31 | C 3.41 | R 2.03 | H 3.75
R18: C 3.43 | Q 3.4 | E 4.21 | L 3.62 | N 3.23 | W 3.03 | F 3.44 | I 3.32 | G 3.28 | H 3.13 | A 2.94 | V 3.89 | S 3.37 | T 3.96 | P 3.83 | K 3.76 | Y 3.05 | D 3.34 | M 3.68
R8: D 3.63 | E 4.21 | I 2.93 | W 3.29 | Q 3.57 | A 3.84 | L 2.9 | H 3.61 | M 3.23 | V 2.94 | K 4 | N 3.38 | G 3.83 | Y 2.77 | T 2.81 | C 3.63 | F 3.55 | S 3.2 | P 3.58
P21: F 3.37 | E 3.28 | C 3.36 | N 3.67 | T 3.86 | I 3.16 | A 4.07 | W 3.45 | V 3.31 | K 2.75 | S 3.13 | G 3.49 | R 3.31 | D 2.71 | Y 3.91 | H 3.41 | Q 3.37 | M 3.76
T14: S 3.19 | I 3.34 | Q 3.31 | D 3.28 | G 3.49 | W 3.95 | N 3.58 | Y 3.49 | L 3.91 | A 3.56 | P 3.11 | M 2.64 | K 3.54 | E 3.28 | C 3.61 | H 3.77 | F 2.68 | V 3.51 | R 3.52
